Assay results from patent publication US20180250358A1, “GHRH AGONISTS FOR THE TREATMENT OF ISCHEMIC DISORDERS” (published 2018).
Non-standard residues stand in square brackets, D forms with d. No end group written: not given here. *: point of attachment. Phe(F5) = N[C@@H](Cc1c(F)c(F)c(F)c(F)c1F)C(=O)O; Desaminotyrosyl = O=C(CCc1ccc(O)cc1)*; NMeY = CN[C@@H](Cc1ccc(O)cc1)C(=O)O; Agmatine = N=C(N)NCCCCN*; Nle = CCCC[C@H](N)C(=O)O; Orn = NCCC[C@H](N)C(=O)O; Abu = CC[C@H](N)C(=O)O; Ava = NCCCCC(=O)O

T1: GHRH receptor of human pituitary membranes (human, UniProt Q02643)
T1 sequence: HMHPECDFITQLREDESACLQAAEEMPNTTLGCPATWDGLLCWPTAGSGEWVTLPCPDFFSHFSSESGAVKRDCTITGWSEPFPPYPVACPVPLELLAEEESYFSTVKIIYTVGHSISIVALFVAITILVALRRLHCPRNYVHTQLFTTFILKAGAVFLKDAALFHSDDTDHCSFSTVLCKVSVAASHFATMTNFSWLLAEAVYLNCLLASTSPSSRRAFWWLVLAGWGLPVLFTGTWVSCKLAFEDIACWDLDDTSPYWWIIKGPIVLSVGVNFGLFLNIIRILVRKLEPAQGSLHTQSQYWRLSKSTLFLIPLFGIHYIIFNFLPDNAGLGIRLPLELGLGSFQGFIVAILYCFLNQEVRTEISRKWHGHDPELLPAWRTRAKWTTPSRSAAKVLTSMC


Assays:
[1] = molecular target: T1, GHRH receptor of human pituitary …; assay: competition vs 125I-JV-1-42, human pituitary membranes;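 further: pituitaries used were normal human glands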
Description: Normal human pituitaries were purchased from the National Hormone and Peptide Program (A.F. Parlow, Los Angeles, County Harbor-UCLA Medical Center, Torrance, Calif.).

[2] = molecular target: T1, GHRH receptor of human pituitary …; assay: competition vs 125I-[His1,Nle27]hGHRH(1-32)NH2, human pituitary membranes
Description: Normal human pituitary was purchased from the National Hormone and Peptide Program (UCLA Medical Center, Torrance, Calif.).

Row | Binder | IC50 [1] [nM] | relative affinity (binding potency) vs JI-38 [1] [vs JI-38=1] | relative affinity (binding potency) compared to JI-38 [2] [vs JI-38=1] | relative affinity (binding potency) compared to hGHRH(1-29) [2] | IC50 [2] [nM]
1 | [Desaminotyrosyl]ADAIFTQSYR[Orn]VL[Abu]QLSAR[Orn]LLQDI[Nle]DR-NHMe (SMILES CCCC[C@H](NC(=O)[C@@H](NC(=O)[C@H](CC(=O)O)NC(=O)[C@H](CCC(N)=O)NC(=O)[C@H](CC(C)C)NC(=O)[C@H](CC(C)C)NC(=O)[C@H](CCCN)NC(=O)[C@H](CCCNC(=N)N)NC(=O)[C@H](C)NC(=O)[C@H](CO)NC(=O)[C@H](CC(C)C)NC(=O)[C@H](CCC(N)=O)NC(=O)[C@H](CC)NC(=O)[C@H](CC(C)C)NC(=O)[C@@H](NC(=O)[C@H](CCCN)NC(=O)[C@H](CCCNC(=N)N)NC(=O)[C@H](Cc1ccc(O)cc1)NC(=O)[C@H](CO)NC(=O)[C@H](CCC(N)=O)NC(=O)[C@@H](NC(=O)[C@H](Cc1ccccc1)NC(=O)[C@@H](NC(=O)[C@H](C)NC(=O)[C@H](CC(=O)O)NC(=O)[C@H](C)NC(=O)CCc1ccc(O)cc1)[C@@H](C)CC)[C@@H](C)O)C(C)C)[C@@H](C)CC)C(=O)N[C@@H](CC(=O)O)C(=O)N[C@@H](CCCNC(=N)N)C(=O)NC) [P-27407 [Dat^1, Gln^8, Orn^12, Abu^15, Orn^21, Nle^27, Asp^28]hGHRH(1-29)NH-CH3] | 3 | 1.45 | 0.54 | 1.52 vs hGHRH(1-29)NH2=1 | –
2 | [NMeY][dA]DAIFTQSYR[Orn]VL[Abu]QLSAR[Orn]LLQDI[Nle]D[Agmatine] [P-20361 [N-Me-Tyr^1, D-Ala^2, Gln^8, Orn^12, Abu^15, Orn^21, Nle^27, Asp^28, Agm^29]hGHRH(1-29)NH2] | 0.82 | 5.3 | 2.3 | 6.42 vs hGHRH(1-29)NH2=1 | 1.19
3 | [NMeY][dA]DAI[Phe(F5)]TNSYR[Orn]VL[Abu]QLSAR[Orn]LLQDI[Nle]DR-NHMe [P-27404 [N-Me-Tyr^1, D-Ala^2, Fpa5^6, Orn^12, Abu^15, Orn^21, Nle^27, Asp^28]hGHRH(1-29)NH-CH3] | 0.87 | 5 | 2.45 | 6.83 vs hGHRH(1-29)NH2=1 | –
4 | [NMeY][dA]DAIFTTSYR[Orn]VL[Abu]QLSAR[Orn]LLQDI[Nle]DR-NHMe [P-27410 [N-Me-Tyr^1, D-Ala^2, Thr^8, Orn^12, Abu^15, Orn^21, Nle^27, Asp^28]hGHRH(1-29)NH-CH3] | 0.83 | 5.24 | 2.14 | 5.98 vs hGHRH(1-29)NH2=1 | 1.28
5 | [NMeY][dA]DAIFTQSYR[Orn]VL[Abu]QLSAR[Orn]LLQDI[Nle]DR[Ava]-NH2 (N-terminus assumed; SMILES CCCC[C@H](NC(=O)[C@@H](NC(=O)[C@H](CC(=O)O)NC(=O)[C@H](CCC(N)=O)NC(=O)[C@H](CC(C)C)NC(=O)[C@H](CC(C)C)NC(=O)[C@H](CCCN)NC(=O)[C@H](CCCNC(=N)N)NC(=O)[C@H](C)NC(=O)[C@H](CO)NC(=O)[C@H](CC(C)C)NC(=O)[C@H](CCC(N)=O)NC(=O)[C@H](CC)NC(=O)[C@H](CC(C)C)NC(=O)[C@@H](NC(=O)[C@H](CCCN)NC(=O)[C@H](CCCNC(=N)N)NC(=O)[C@H](Cc1ccc(O)cc1)NC(=O)[C@H](CO)NC(=O)[C@H](CCC(N)=O)NC(=O)[C@@H](NC(=O)[C@H](Cc1ccccc1)NC(=O)[C@@H](NC(=O)[C@H](C)NC(=O)[C@H](CC(=O)O)NC(=O)[C@@H](C)NC(=O)[C@H](Cc1ccc(O)cc1)NC)[C@@H](C)CC)[C@@H](C)O)C(C)C)[C@@H](C)CC)C(=O)N[C@@H](CC(=O)O)C(=O)N[C@@H](CCCNC(=N)N)C(=O)NCCCCC(N)=O) [P-22326 [N-Me-Tyr^1, D-Ala^2, Gln^8, Orn^12, Abu^15, Orn^21, Nle^27, Asp^28, Apa^30]hGHRH(1-30)NH2] | 0.71 | 6.12 | 2.8 | 7.81 vs hGHRH(1-29)NH2=1 | 0.98
6 | [Desaminotyrosyl]ADAIFTQSYR[Orn]VL[Abu]QLSAR[Orn]LLQDI[Nle]DR[Ava]-NH2 (SMILES CCCC[C@H](NC(=O)[C@@H](NC(=O)[C@H](CC(=O)O)NC(=O)[C@H](CCC(N)=O)NC(=O)[C@H](CC(C)C)NC(=O)[C@H](CC(C)C)NC(=O)[C@H](CCCN)NC(=O)[C@H](CCCNC(=N)N)NC(=O)[C@H](C)NC(=O)[C@H](CO)NC(=O)[C@H](CC(C)C)NC(=O)[C@H](CCC(N)=O)NC(=O)[C@H](CC)NC(=O)[C@H](CC(C)C)NC(=O)[C@@H](NC(=O)[C@H](CCCN)NC(=O)[C@H](CCCNC(=N)N)NC(=O)[C@H](Cc1ccc(O)cc1)NC(=O)[C@H](CO)NC(=O)[C@H](CCC(N)=O)NC(=O)[C@@H](NC(=O)[C@H](Cc1ccccc1)NC(=O)[C@@H](NC(=O)[C@H](C)NC(=O)[C@H](CC(=O)O)NC(=O)[C@H](C)NC(=O)CCc1ccc(O)cc1)[C@@H](C)CC)[C@@H](C)O)C(C)C)[C@@H](C)CC)C(=O)N[C@@H](CC(=O)O)C(=O)N[C@@H](CCCNC(=N)N)C(=O)NCCCCC(N)=O) [P-22327 [Dat^1, Gln^8, Orn^12, Abu^15, Orn^21, Nle^27, Asp^28, Apa^30]hGHRH(1-30)NH2] | 1.99 | 2.18 | 1.34 | 3.75 vs hGHRH(1-29)NH2=1 | –
7 | [NMeY][dA]DAIFTNSYR[Orn]VL[Abu]QLSAR[Orn]LLQDI[Nle]DR-NHMe [P-27409 [N-Me-Tyr^1, D-Ala^2, Orn^12, Abu^15, Orn^21, Nle^27, Asp^28]hGHRH(1-29)NH-CH3] | 1.06 | 4.1 | 2.71 | 7.57 vs hGHRH(1-29)NH2=1 | 1.01
8 | [NMeY]ADAIFTQSYR[Orn]VL[Abu]QLSAR[Orn]LLQDI[Nle]SR-NHMe [P-27405 [N-Me-Tyr^1, Gln^8, Orn^12, Abu^15, Orn^21, Nle^27]hGHRH(1-29)NH-CH3] | 1.08 | 4.03 | 1.09 | 3.04 vs hGHRH(1-29)NH2=1 | –
9 | [NMeY][dA]DAIFTNSYR[Orn]VL[Abu]QLSAR[Orn]LLQDI[Nle]D[Agmatine] [P-20367 [N-Me-Tyr^1, D-Ala^2, Orn^12, Abu^15, Orn^21, Nle^27, Asp^28, Agm^29]hGHRH(1-29)NH2] | 1.7 | 2.56 | 2.51 | 7.01 vs hGHRH(1-29)NH2=1 | 1.09

The remaining binders from weak to strong by IC50 [1], led by results:

Row | IC50 [1] [nM] | relative affinity (binding potency) vs JI-38 [1] [vs JI-38=1] | relative affinity (binding potency) compared to JI-38 [2] [vs JI-38=1] | relative affinity (binding potency) compared to hGHRH(1-29) [2] | IC50 [2] [nM] | Binder
10 | 3.44 | 1.26 | 0.71 | 1.98 vs hGHRH(1-29)NH2=1 | 3.87 | Ac-[NMeY][dA]DAIFTQSYR[Orn]VL[Abu]QLSAR[Orn]LLQDI[Nle]D[Agmatine] (SMILES CCCC[C@H](NC(=O)[C@@H](NC(=O)[C@H](CC(=O)O)NC(=O)[C@H](CCC(N)=O)NC(=O)[C@H](CC(C)C)NC(=O)[C@H](CC(C)C)NC(=O)[C@H](CCCN)NC(=O)[C@H](CCCNC(=N)N)NC(=O)[C@H](C)NC(=O)[C@H](CO)NC(=O)[C@H](CC(C)C)NC(=O)[C@H](CCC(N)=O)NC(=O)[C@H](CC)NC(=O)[C@H](CC(C)C)NC(=O)[C@@H](NC(=O)[C@H](CCCN)NC(=O)[C@H](CCCNC(=N)N)NC(=O)[C@H](Cc1ccc(O)cc1)NC(=O)[C@H](CO)NC(=O)[C@H](CCC(N)=O)NC(=O)[C@@H](NC(=O)[C@H](Cc1ccccc1)NC(=O)[C@@H](NC(=O)[C@H](C)NC(=O)[C@H](CC(=O)O)NC(=O)[C@@H](C)NC(=O)[C@H](Cc1ccc(O)cc1)N(C)C(C)=O)[C@@H](C)CC)[C@@H](C)O)C(C)C)[C@@H](C)CC)C(=O)N[C@@H](CC(=O)O)C(=O)NCCCCNC(=N)N)
11 | 1.47 | 2.96 | 0.9 | 2.5 vs hGHRH(1-29)NH2=1 | 3.05 | [NMeY][dA]DAIFTNSYR[Orn]VL[Abu]QLSAR[Orn]LLQDI[Nle]DR-NHEt [P-28421 [N-Me-Tyr^1, D-Ala^2, Orn^12, Abu^15, Orn^21, Nle^27, Asp^28]hGHRH(1-29)NH-CH2-CH3]
12 | 0.52 | 8.37 | 1.01 | 2.83 vs hGHRH(1-29)NH2=1 | 2.7 | [NMeY][dA]DAIFTQSYR[Orn]VL[Abu]QLSAR[Orn]LLQDI[Nle]DR-NHEt [P-28420 [N-Me-Tyr^1, D-Ala^2, Gln^8, Orn^12, Abu^15, Orn^21, Nle^27, Asp^28]hGHRH(1-29)NH-CH2-CH3]
13 | 0.3 | 14.5 | 2.95 | 8.22 vs hGHRH(1-29)NH2=1 | – | [NMeY]ADAIFTQSYR[Orn]VL[Abu]QLSAR[Orn]LLQDI[Nle]DR-NHMe [P-27406 [N-Me-Tyr^1, Gln^8, Orn^12, Abu^15, Orn^21, Nle^27, Asp^28]hGHRH(1-29)NH-CH3]
